{"source": "paper PMC9186069", "about": "(2022)", "binders": {"B1": {"name": "FbpB-Δ5C (domain or fragment)", "chain": "GSTGSETRLDNQYKFNLNKTTNSVEQALKIAQQIKDDLDTIEFHRIKLSNHYGIRAEEHEKQTAKEELSKFSKDKLEADLKKLLCEIEKSLNAATILTTHNEYHYGGNLQSDLSAKTTLDTLKTEVSSLISKIQNSNNKDHQAYPTSYYNDYQSYQALRNPYSKLTLVK", "modifications": "activated two-chain form, cleaved between 463 and 464 (cleavage limits from UniProt chain features), heavy and light chains disulfide-linked; plasma-purified glycoprotein; native C1r forms a Ca-dependent-complex homodimer, but the paper does not state stoichiometry"}}, "target": "T1, active C1r (human, UniProt P00736)", "T1 chain 1": "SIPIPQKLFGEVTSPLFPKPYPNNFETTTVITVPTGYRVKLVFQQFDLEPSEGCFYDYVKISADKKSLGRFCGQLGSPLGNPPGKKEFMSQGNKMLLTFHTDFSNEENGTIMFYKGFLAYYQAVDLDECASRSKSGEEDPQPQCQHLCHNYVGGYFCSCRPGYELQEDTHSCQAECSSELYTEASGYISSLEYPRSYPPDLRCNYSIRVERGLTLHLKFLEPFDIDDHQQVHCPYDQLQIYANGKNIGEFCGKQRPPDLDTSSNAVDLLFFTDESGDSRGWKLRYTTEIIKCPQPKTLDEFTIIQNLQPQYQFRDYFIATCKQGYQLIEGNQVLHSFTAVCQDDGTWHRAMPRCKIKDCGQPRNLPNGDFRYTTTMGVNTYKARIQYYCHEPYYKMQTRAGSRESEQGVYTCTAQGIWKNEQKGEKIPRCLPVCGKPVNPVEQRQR", "T1 chain 2": "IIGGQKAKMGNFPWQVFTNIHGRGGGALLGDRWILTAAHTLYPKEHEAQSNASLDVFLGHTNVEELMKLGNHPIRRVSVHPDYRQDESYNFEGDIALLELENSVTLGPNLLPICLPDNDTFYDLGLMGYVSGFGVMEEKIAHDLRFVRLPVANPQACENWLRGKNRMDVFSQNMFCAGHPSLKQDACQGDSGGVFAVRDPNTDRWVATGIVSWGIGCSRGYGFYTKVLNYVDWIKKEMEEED", "assay": "SPR", "data": [{"binder": "B1", "values": [{"measurement": "Kd", "result": 2.1, "unit": "nM"}]}]}
